Target: HA-Cdh1 (UniProt Q9UM11)
Sequence (Q9UM11 whole entry): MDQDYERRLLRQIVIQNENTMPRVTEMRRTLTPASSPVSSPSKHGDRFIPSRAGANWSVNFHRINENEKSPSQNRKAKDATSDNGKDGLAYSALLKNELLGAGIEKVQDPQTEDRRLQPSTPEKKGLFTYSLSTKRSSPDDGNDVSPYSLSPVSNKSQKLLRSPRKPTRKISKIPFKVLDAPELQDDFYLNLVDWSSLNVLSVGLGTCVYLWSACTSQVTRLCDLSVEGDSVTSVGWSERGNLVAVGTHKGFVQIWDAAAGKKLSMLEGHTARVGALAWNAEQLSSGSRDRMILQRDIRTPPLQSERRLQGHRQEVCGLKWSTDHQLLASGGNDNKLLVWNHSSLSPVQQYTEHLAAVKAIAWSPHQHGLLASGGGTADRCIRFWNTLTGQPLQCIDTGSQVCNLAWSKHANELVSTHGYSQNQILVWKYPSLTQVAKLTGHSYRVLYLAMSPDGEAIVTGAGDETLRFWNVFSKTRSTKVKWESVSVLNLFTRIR

Substance: recombinant human cyclin D1+CDK4 proteins (Abcam ab55695)
- in vitro kinase assay (thiophosphate ester immunoblot): CDK4 specifically phosphorylates Cdh1 at S163
